The labels stand for the following.
B1: GAS5 Aptamer + GAS5 specific strand (dsDNA)
DNA 1: TGTCTTCATGTCTAGCCAATGTACAGTATTGGCTA
DNA 2: GACATGAAGACAGTTCCT
B2: GAPDH Aptamer + GAPDH specific strand (dsDNA)
DNA 1: TTCTCAAGACGGAATCAATGTACAGTATTGATT
DNA 2: CCGTCTTGAGAAACCTGC
B3: ACTB Aptamer + ACTB specific strand (dsDNA)
DNA 1: ACGCAACTAAGTGACCAATGTACAGTATTGGTC
DNA 2: ACTTAGTTGCGTTACACC
B4: NEAT1 Aptamer + NEAT1 specific strand (dsDNA)
DNA 1: TTAGCGCCAAACTAGCAATGTACAGTATTGCTA
DNA 2: GTTTGGCGCTAAACTCTT
B5: PCGEM1 Aptamer + PCGEM1 specific strand (dsDNA)
DNA 1: CCTCAGAAATCTCGGCAATGTACAGTATTGCCG
DNA 2: AGATTTCTGAGGGGAATT
B6: hnRNPA2B1 Aptamer + hnRNPA2B1 specific strand (dsDNA)
DNA 1: TGCCTATCAGTATGACCAATGTACAGTATTGGTCA
DNA 2: TACTGATAGGCAGTCTGG
B7: miR-1827 Aptamer + miR-1827 specific strand (dsDNA)
DNA 1: AGTAGATTGAATCGGACAATGTACAGTATTGTCCG
DNA 2: ATTCAATCTACTGCCTCA
B8: miR-223-5p Aptamer + miR-223 specific strand (dsDNA)
DNA 1: ACAAGCTGAGTTCGCCAATGTACAGTATTGGCG
DNA 2: AACTCAGCTTGTCAAATA

Chain of Taq DNA polymerase (P19821 whole entry, one chain of several): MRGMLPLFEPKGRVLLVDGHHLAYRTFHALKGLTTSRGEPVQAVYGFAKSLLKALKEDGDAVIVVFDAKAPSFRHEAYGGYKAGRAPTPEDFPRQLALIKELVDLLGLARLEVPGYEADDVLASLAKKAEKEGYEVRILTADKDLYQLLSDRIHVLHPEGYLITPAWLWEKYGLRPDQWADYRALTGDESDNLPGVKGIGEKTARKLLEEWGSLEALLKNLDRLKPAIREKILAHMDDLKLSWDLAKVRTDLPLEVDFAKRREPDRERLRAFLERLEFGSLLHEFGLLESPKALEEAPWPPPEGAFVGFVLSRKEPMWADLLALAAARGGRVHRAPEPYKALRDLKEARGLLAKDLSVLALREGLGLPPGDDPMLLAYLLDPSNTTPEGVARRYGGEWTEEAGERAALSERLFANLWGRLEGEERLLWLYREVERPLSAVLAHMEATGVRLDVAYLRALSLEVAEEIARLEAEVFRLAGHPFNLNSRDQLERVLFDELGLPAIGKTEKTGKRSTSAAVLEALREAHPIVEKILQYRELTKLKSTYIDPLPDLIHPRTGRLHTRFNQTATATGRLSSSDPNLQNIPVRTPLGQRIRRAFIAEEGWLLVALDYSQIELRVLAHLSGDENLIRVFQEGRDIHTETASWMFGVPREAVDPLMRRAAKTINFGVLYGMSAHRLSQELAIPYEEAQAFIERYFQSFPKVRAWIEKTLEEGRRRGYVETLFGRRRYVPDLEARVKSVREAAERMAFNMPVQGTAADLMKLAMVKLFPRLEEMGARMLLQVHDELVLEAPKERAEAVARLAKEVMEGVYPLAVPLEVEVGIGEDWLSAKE

The data set addresses Taq DNA polymerase (UniProt P19821 P19821:1-832). Nature of the data set: inhibition; >80% signal with target; 1.5 mM MgCl2. The note with it: tags: Promega; partial duplex plus stabilizer hairpin.
As to B1, the activity is under 10 % signal without target.
Regarding B2, the activity was under 10 % signal without target.
Under B3 stands under 10 % signal without target.
As for B4, the figure is under 10 % signal without target; as for B5, under 10 % signal without target; as for B6, under 10 % signal without target.
Under B7 stands under 10 % signal without target; under B8, under 10 % signal without target.

The values are drawn from patent publication US20230357857, “NUCLEIC ACID NANOSTRUCTURES WITH TUNABLE FUNCTIONAL STABILITY” (National University of Singapore, published 2023).
